Data published in EP2871189A1 (INSTITUT PASTEUR, dated 2015).

Experiments:
[1] = target: recombinant ectodomain of glycoprotein E2 of GB virus (GBV-B) fused to the double Strep-Tag (GB virus (GBV-B)); assay: Western blot
[2] = target: T1, VHH-E9 containing the strep-tag sequence of SEQ ID NO: 13 at the C terminus; assay: ELISA assay after Friguet et al 1985 (method as in the sentence before)
T1 construct: also called Strep-tagged anti-GFAP VHH E9; anti-GFAP VHH E9

B1: monoclonal antibody C23.21 (antibody, V domains shown)
VH: EVQLEQSGPELVKPGASVKMSCKASGYTFTNYYMKWVKQSHGKSLEWIGDLNPNNGDTFYNQKFKGKATLTVDKSSNTAYMQLNSLTSEDSAVYYCARTGRYEENAMDYWGQGTSVTVSS
VL: ELVMTQSPASLAVSLGQRATISCRASESVDSYGKSFMHWYQLKPGQPPKLLIYRASNLESGVPARFSGSGSRTDFTLTIDPVEADDAATYYCQQNNEDPWTFGGGTKLEIK
notes: also called C23-21 mAb; anti-strep tag C23-21 mAb
binding result [1]: binds | Kd [2]: 0.91 nM
